The numbers were not newly measured in article PMC3686100, which cites them from elsewhere.

The series has as its target ClpP (Escherichia coli) (UniProt P0A6G7).
UniProt P0A6G7, sequence (P0A6G7 15-207): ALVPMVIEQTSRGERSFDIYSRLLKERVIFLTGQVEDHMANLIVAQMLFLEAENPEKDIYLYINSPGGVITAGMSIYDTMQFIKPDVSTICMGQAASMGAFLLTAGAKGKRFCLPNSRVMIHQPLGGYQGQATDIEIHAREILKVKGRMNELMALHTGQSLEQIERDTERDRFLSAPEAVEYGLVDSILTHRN

Take ClpX (from UniProt P0A6H1): the dissociation constant (Kd) was 90 nM.

Broadly, the Kd is the equilibrium constant for the complex coming apart.
